IntAct's records for PubMed 11283256

B1: Serine/threonine-protein kinase MRCK alpha (Homo sapiens), Q5VT25 (parent)
chain: MSGEVRLRQLEQFILDGPAQTNGQCFSVETLLDILICLYDECNNSPLRREKNILEYLEWAKPFTSKVKQMRLHREDFEILKVIGRGAFGEVAVVKLKNADKVFAMKILNKWEMLKRAETACFREERDVLVNGDNKWITTLHYAFQDDNNLYLVMDYYVGGDLLTLLSKFEDRLPEDMARFYLAEMVIAIDSVHQLHYVHRDIKPDNILMDMNGHIRLADFGSCLKLMEDGTVQSSVAVGTPDYISPEILQAMEDGKGRYGPECDWWSLGVCMYEMLYGETPFYAESLVETYGKIMNHKERFQFPAQVTDVSENAKDLIRRLICSREHRLGQNGIEDFKKHPFFSGIDWDNIRNCEAPYIPEVSSPTDTSNFDVDDDCLKNSETMPPPTHTAFSGHHLPFVGFTYTSSCVLSDRSCLRVTAGPTSLDLDVNVQRTLDNNLATEAYERRIKRLEQEKLELSRKLQESTQTVQALQYSTVDGPLTASKDLEIKNLKEEIEKLRKQVTESSHLEQQLEEANAVRQELDDAFRQIKAYEKQIKTLQQEREDLNKELVQASERLKNQSKELKDAHCQRKLAMQEFMEINERLTELHTQKQKLARHVRDKEEEVDLVMQKVESLRQELRRTERAKKELEVHTEALAAEASKDRKLREQSEHYSKQLENELEGLKQKQISYSPGVCSIEHQQEITKLKTDLEKKSIFYEEELSKREGIHANEIKNLKKELHDSEGQQLALNKEIMILKDKLEKTRRESQSEREEFESEFKQQYEREKVLLTEENKKLTSELDKLTTLYENLSIHNQQLEEEVKDLADKKESVAHWEAQITEIIQWVSDEKDARGYLQALASKMTEELEALRNSSLGTRATDMPWKMRRFAKLDMSARLELQSALDAEIRAKQAIQEELNKVKASNIITECKLKDSEKKNLELLSEIEQLIKDTEELRSEKGIEHQDSQHSFLAFLNTPTDALDQFERSPSCTPASKGRRTVDSTPLSVHTPTLRKKGCPGSTGFPPKRKTHQFFVKSFTTPTKCHQCTSLMVGLIRQGCSCEVCGFSCHITCVNKAPTTCPVPPEQTKGPLGIDPQKGIGTAYEGHVRIPKPAGVKKGWQRALAIVCDFKLFLYDIAEGKASQPSVVISQVIDMRDEEFSVSSVLASDVIHASRKDIPCIFRVTASQLSASNNKCSILMLADTENEKNKWVGVLSELHKILKKNKFRDRSVYVPKEAYDSTLPLIKTTQAAAIIDHERIALGNEEGLFVVHVTKDEIIRVGDNKKIHQIELIPNDQLVAVISGRNRHVRLFPMSALDGRETDFYKLSETKGCQTVTSGKVRHGALTCLCVAMKRQVLCYELFQSKTRHRKFKEIQVPYNVQWMAIFSEQLCVGFQSGFLRYPLNGEGNPYSMLHSNDHTLSFIAHQPMDAICAVEISSKEYLLCFNSIGIYTDCQGRRSRQQELMWPANPSSCCYNAPYLSVYSENAVDIFDVNSMEWIQTLPLKKVRPLNNEGSLNLLGLETIRLIYFKNKMAEGDELVVPETSDNSRKQMVRNINNKRRYSFRVPEEERMQQRREMLRDPEMRNKLISNPTNFNHIAHMGPGDGIQILKDLPMNPRPQESRTVFSGSVSIPSITKSRPEPGRSMSASSGLSARSSAQNGSALKREFSGGSYSAKRQPMPSPSEGSLSSGGMDQGSDAPARDFDGEDSDSPRHSTASNSSNLSSPPSPASPRKTKSLSLESTDRGSWDP
partner: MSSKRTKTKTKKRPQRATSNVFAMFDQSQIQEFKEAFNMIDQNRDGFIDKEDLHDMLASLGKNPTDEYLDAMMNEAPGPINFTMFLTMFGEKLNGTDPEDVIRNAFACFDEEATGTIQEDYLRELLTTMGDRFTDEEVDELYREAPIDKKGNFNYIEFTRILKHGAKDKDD

Variants of: B1
Details: with ml12a_human MYL12A

| Variant | effect of a mutation on the interaction |
| --- | --- |
| S234A | decreasing interaction |
| K106A | decreasing interaction |

More lines, now with the values ahead:

| effect of a mutation on the interaction | Variant |
| --- | --- |
| decreasing interaction | T240A |
| decreasing interaction | T403A |
